Test results as given in the DeepSol protein solubility set.

assay: soluble on expression in E. coli; label from the status in PepcDB or PDB records

**Q.** Which “soluble on expression in E. coli” value does the source give for “MGSDKIHHHHHHMLDLINVSYDTQIPNNVGLSQDKKVLKALEKWHPGYINWWNDLIPQNFQESLVYLRTAVSVDPKGWAKFDYVKMPEYRWGVLLAPQVENRTIPCGEHYGQPAWQEVPGEYRNLLKRLIVIQGDTEPASVEQQRLLALTAPSLYDMRNLFQVNVEEGRHLWAMVYLLHKYFGRDGREEADDLLRRQSGSEEAPRMLGAFNEETPDWLSFFMFTYFTDRDGKMQLESLAQSGFDPLSRTCRFMLTEEAHHMFVGETGVGRTIERTCQVMKENGIDDPYDTGRIRDLGVIDLPLIQKKLNLHYTLSLDLFGQEVSTNAANAFNAGIKGRYMENRLTDDHQLQQDTYTVWDFEDGKAVQKQVAALTAINMRLRDDYTKDAAGGVGRWNKIIEKHGVDFQLSLPHEAFHRKIGVFADKHFDPSGQPVSGAEYDAGLPKWLPTHADGDFIQSLMKPCYEPGQYARWIAPPKVGIDNRPGDFEYVKLHMA” here?
**A.** not soluble

**Q.** With “MGSDKIHHHHHHMLDQIKAHLLDSINDIVSSANQFVLHPEKDFSRQSQLTMKTMIQAILTMGGNTLAKELLDLDLPVSQSAFVQRRYQIKHQAFKTLFRDITSKIPISDNLPILAVDGSDVILPRNRFDKTTSFQTGPHHTPYNLIHINALYTLEQEIYHDLRIQDNREVDERAAFIDMMKTSSFKQALVIMDRGYESYNVMAHCQERNWSYIIRIRDGNHSMKSGFNLPDTPCFDEAFDLNICRKQTNDMKELYRDFPNQYHFLPHNASFDFLLNSSRKSDPLQFYELHFRMVRLEIKPGFFETLVTNTDYSPEKLKELYAYRWGIETSFRDLKYSIGLTHFHAKKKEGILQEIYARFINFNVCKWLTSHVAIKTSKLKQTYKICFSDAVYACRKFLRNKLTSFQLETYIAKHLSIIRPNRTFQRKIKSKAPVSFTYRVT” as the sequence, how does the “soluble on expression in E. coli” value read?
**A.** not soluble

**Q.** For “MGSDKIHHHHHHMLEATYHSLEDLAEAIGVALSAPITIEDRNHRLLAYSTHTADTDPARIATIIGRRVPESVIDQLWKDEVIQNLAAQDEPLIISARTGVGLNDRVAIAIKQDTEILGYIWSIARSTPFSETELSDFKKGALLAQRQLLAIDMQKKRQEEKTEQFFFELLHEDMPESEILKTFSKLHVAPPGISRLMVIRFSEAITPRLADRLRYLLTIQQTVRPLLYAYDETDFILWISTNDQDAHHERLQFDAFIQSFRQMLAERFNYTNFISASSEVFTGVQSIPERYEETGIVLRLKDAFPFELSTVTRYERLGLFQLLPIFSERLRRRTVRLEEIERLRSYDEKHAASLCETLEWFLHYDGNVKQVASHLHVHPNTILYRMRRIEEEAGIRMESLPERALLYLYLKADRYPL”, which “soluble on expression in E. coli” value is on record?
**A.** not soluble

**Q.** For “MGSDKIHHHHHHMLEEGEHVLVAVSGGIDSMTLLYVLRKFSPLLKIKITAAHLDHRIRESSRRDREFVERICRQWNIPVETSEVDVPSLWKDSGKTLEEIAREVRYDFLKRTAKKVGASKIALAHHKNDLLETVVHRLIRGTGPLGLACISPKREEFIRPFLVFKRSEIEEYARKNNVPYVVDETNYNVKYTRNFIRHRIVPLMKELNPTVEDAVYRLVSVTHLLRNFVERTVQDFVERNVYFYKDYAVFVEPEDLFLFLEVTRWVLKEMYGRVPEYEKLIGTLKSKRVELWSGIFVERSFGYVAVGKTVFKKKYRVEVKGDMLEMEGFKIRVVNNRNDMKFWVRNRKEGDRIIVNGRERKLKDVFIEKKVPTFYRDRVPLLVDEEDRVLWVPGIARSDFLPEDVVVELLEYPVGYVKGGTYFEQV”, which “soluble on expression in E. coli” value is on record?
**A.** not soluble

**Q.** Which “soluble on expression in E. coli” value does the source give for “MGSDKIHHHHHHMLFSVVDDRSGVAYQEYHCVYGEDAETALRFLFNSMAPKADPSFPFQGRPKLIYLDNGPVAKRRVFQSVMRALGIEWQTHIPASKDGTRTTARSKGKVERPFRTVKEAHETLYHFHKPETEAQANEWLLRYLVRTYNQQTHRAEPLSRIEDWITHVPTEGIREMCSWDQFCRFAREPERRKVGPDARITTDGTAYELEPEMAGDYVVLLWGLFDDELHAEFDGERFGPHYPVSGPIPQHRYRAFKRSKADERSARIRSLADQLGLPIAALSGEDVRLEPGSADSTLPIQPFVFEPQESRIAAKLAIAEELAMPLAKLSMDDRAFIDQVLSETLATD” here?
**A.** not soluble

**Q.** Which “soluble on expression in E. coli” value does the source give for “MGSDKIHHHHHHMLGTLKKLRAHLDEAQQVQYQLVVGEELLPLNPLIGQPLTLTHTGNIFCCNCGKKTKKSYSQGHCFVCMQKLASCDMCIMKPETCHFDQGTCREPEWAQSHCFVPHYVYLSNTSGIKVGITRHTQLPSRWIDQGATQGLPIFKVATRQISGLVEVELAKLINDKTHWQAMLKGHADDIDLQAKAAELIPHIEAKLHEIGMQKGNYSIERLQENIQTIHYPIEVFPKKITSHNFDKEAVVSGILQGIKGQYLLFDTGVINIRKFTAYEVSVTLTG” here?
**A.** not soluble

**Q.** With “MGSDKIHHHHHHMLKEFKEQRLKEIQELRSMGIEPYPYKFEKELTAREIREKYDYLQAGEVLESEKLSFAGRVMSIRHHGKTAFFHMKDDTGRIQAYIKADSVGKEKMDLFKRHVKIGDFVGVRGFPFKSKTGELTIYVQEYTLLSKALRPLPEKWHGIKDKEIIYRQRYLELIVNDEAIERFKKRFKAVRVIREFLNSRGFIEVETPILHYVTGGAEARPFVTHLNVFDIDMYLRIAPELYLKRLIVGGFEKIYEIGKNFRNEGISYKHSPEFTSIEIYQAYADYNDMMDLTEELIVEVVKRTCGTLKISYQGKEIDFTPPWKRVRMRDFLKEKLGVDILEDPDEVLLKKLEEHGVELEIKNRAHLIDKLRDLVEEELVNPTFIIDHPVVISPLAKRHREDPRLTERFELIIFGREIANAFSELNDPVDQYQRFLEQAKMREEGDEEAHMMDLDFVRALEYGMPPTGGLGIGLDRLFMFITDSPTIRDVIPFPIVKPKKFEEEEAEFEGGFEE” as the sequence, how does the “soluble on expression in E. coli” value read?
**A.** not soluble

**Q.** For “MGSDKIHHHHHHMLKENRSLDRGIEILETLAREGAMSLADLHRATGLPKSTLRRLLQTLIARKIVRRSLADKLYRTLVVFPDISGEVMPKGMLHISEAAIPRALALTKEIGWPSDIHIRETRAMRIIDNTRHASTFHVERGQINQRVSHFGSATGLACLAEMKDAEIATIYEAFKPDLQWGPVRFGLDLAGLMARIEQVRQVGYAERLSAPMSDPDWDTDLRAIAVAIKARGRVVGGLSVLWLRPYKPVEEFARLHLEALQTAAAEINATLDAVWEDAAT”, which “soluble on expression in E. coli” value is on record?
**A.** not soluble

**Q.** Which “soluble on expression in E. coli” value does the source give for “MGSDKIHHHHHHMLKIELLESFIAVAECGNMSKAADKVCRTQSTLSLQIKKLEEVVGQSLLLRDNKGTTLTESGSTLLNYAYKMMQLNSQAIHDLKDCQNREIIRLGVPTDYIKFYLNSCLLEFIREFTCIELVIDTDVSGNLFKRLQQGEFDLIVATHWQAPVNGELLFSRRFHWAAAKNGQAHKRSTVPMALYPENCPIRAQVFANHQLSMRPINVLLSTPSPQALCMAVENDLAIAPIAEFRTNEHMQILDPHEHGLPPLPIFNESLYLNPETQTEATMQLITLIKANVEHLSDTID” here?
**A.** not soluble

**Q.** For “MGSDKIHHHHHHMLKINMFSAADSVKGQGVGSAYNELMNLLKTHLNQEFDVSVNRYRRVDITHYHTINFSYYLSTFLPHRGRKIGYVHFLPETLEGSLKIPQPFRSIFYAYVLAFYRRMDHIVVVNPTFIPKLVAAGIPAERVTYIPNFVSRDEFYPVTVEQKQALRQQYGYATDRFTILGIGQIQERKGLFDFIKLARNNPSYQFIWAGGFSFGRMTDGYAELKKVVDNPPANLSFPGIVDRDKLVDYYNLADLFLLPSFNELFPMSVLEAFSTGTPVLLRDLDLYQAIIAGDYQPAKDYAEMDEQLHRLAADPQALAHWRQQSLAAADRYSEEHLTQIWREFYTQQAKER”, which “soluble on expression in E. coli” value is on record?
**A.** not soluble

**Q.** Which “soluble on expression in E. coli” value does the source give for “MGSDKIHHHHHHMLKINQVKLTQVNLAQINTAKVNTIPAKVVHKMMKKVVITTLIAMNLMQVSFAADVVEKNETKVVAKPVKVAPVLNMPMAAKTELNATLYSRSHIPITASLNARVDYLVEPGDFVAQGDKLAGMDLLPIQLRQAEQKAQISRARINVAYIKNELSRLQALSKTQAVSQFKLDQMRSEHDLAAADLEIAQLKLAQINEQLSRAIITAPFAGIITERLIRVGSEVNRGDILLRLLDTEHLEARLYIPIKYLAFINKGDKLSMSASDQKTLAAVTAKIPRADPRSQTFEVRLNIPKAFNKHWAAGQLVSVSVPTQKATASLTVPRDALILRKSGSYVIKVNADNTVSRLAVVVGKGNKERVAITGSLKHGDNVAIRGAERLADGDKVVIQ” here?
**A.** not soluble

**Q.** Which “soluble on expression in E. coli” value does the source give for “MGSDKIHHHHHHMLKSCPMNPRLDALHPYPFEKLRALLADAGKPTHDLPPINLSIGEPKHAAPACVGQAIAANLAGLSVYPSTKGEPALRQAISQWLSRRYSIPAPDPESEVLPVLGSREALFAFAQTVIDPSAGALVVCPNPFYQIYEGAALLAGATPYYVNADPARDFGCDWARVPDEVWRRTQLVFVCSPGNPAGNVMSLEEWRTLFELSDRHGFVIAADECYSEIYLDEDNPPLGSLQAARRLGRDRYTNLVAFSSLSKRSNVPGMRSGFVAGDAALLARFLLYRTYHGSAMSPVVSAASIAAWSDETHVQENRRQYRAKFEAVLPILQNVLDVRAPQASFYLWAGTPGSDTAFARELYGRTGVTVLPGSLLAREAHNANPGQGRIRIALVAPLDQCVQAAERIAHFARTSI” here?
**A.** not soluble

**Q.** With “MGSDKIHHHHHHMLLFQDLRKDIYEIVSKRFRISENDVYLDDTGHSDITIRVFRILKSPDGGENAVMEIVRSISEKDYVEKALSEGGYINVWIKRTYMLREVLESIEKSGTYPDVFQEAERVSVEHTSANPTGPLHIGRARNSIIGDSIYRILSRYGYRTVRQYFVNDSGKQMISLYTAYIKYGGPITIENLLENYQKIYREMEKDQSIEKEIEKNIERYENADPEVFGTLRKIAGVMLDGIASTLKRIGIEFDEFDWESDLLLNGSVRKAIDMLETKEEDSARYIEISGKKVFLTRKDGTTLYFARDIAYHLFKAENSEWIIDVLGEDHKDHAKSLNHVLKEMLKLENRVSFMYYSFITLETGKMSTRRGNIVTLQDLVDRTYDEALKIVNEKRPDLSEEERKKIAEVIASSAVRYSIIRVSAPKPITFRWEEALNFESNSAPFIMYSHARAASILDKAPEPEQSYGMDMPKEEADLVKAMYVYPYYLKDAAQDLKPDLIAAYLISLVQKFNDFYGACRVIGTDPLTYARRIRIVKAYKQILSDAGDLIGIKMLDQM” as the sequence, how does the “soluble on expression in E. coli” value read?
**A.** not soluble

**Q.** For “MGSDKIHHHHHHMLLTPDDLKACEVELARRSLADFARMAWPVLEPATPLKWGWALDAICEHLEAVSRGESKRLLMNVPPGSMKSLLTGVIWPAYEWGPMDHAEMRFLGTAHKQDLAVRDNLKCRRLIQSQWYQERWPVVLTSDQNAKTKFENARTGFREAMAFESMTGSRGDRVILDDPHSVDDANSAAKLASGVTTFREALPSRVNNDQSAIVIVMQRLNEADVSAVAIDLGYDHLCIPMRYEPGRSKWVYGSGDPRKEEGELMFPERFPEEQVSELEKTMGSYAVAGQLQQRPAPRGGGIIKTAWFRSYRELPALEWRQIHADTAQKTGEENDYSVFQCWGRTTTGQAVLIDQIRGKWEAPDLLTQARAFWLKHKSIPGPVLRAMKVEDKVSGTGLIQTLRREGVAVIPVQRNKDKISRAYDAAAFIESGNVLLPEWADWLDGFTNEAATFPSGAHDDQLDPMFDAIHDVQFGMTVSAAVTRPIPRSVTAFNKR”, which “soluble on expression in E. coli” value is on record?
**A.** not soluble

**Q.** Which “soluble on expression in E. coli” value does the source give for “MGSDKIHHHHHHMLMSVTTENAPVQGQTTLQENSAGEGVYASLFEKINLTPASCLGDINDFLDDAALSEAPAAERLTAAMQVFMERIRQSGQRVEKLDKTLIDHHIAELDFQISRQLDAVMHHQEFQQVESLWRGLKQLVDNTDYRQNVKTEILDVAKDDLRQDFEDAPELIQSGLYWHTYTAEYDTPGGEPIGSVISAYEFDASPQDVALLRNISRVSAAAHMPFIGAVGPAFFLKETMEEVAAIKDIGNYFDRAEYIRWKAFRETDDARYIGLVMPRVLGRLPYGPDTVPVRSFNYVEQVKGPDHEKYLWTSAAFSFASNMVKSFVNNGWCVQIRGPQAGGAVKDLPIHLYDLGTGNQVKIPSEVMIPETREFEFASLGFIPLSYYKNRDYACFFSANSAQKPALYDTADATANSRINARLPYIFLLSRIAHYLKMIQRENIGTTKDRRLLELELNTWVRSLVTEMTDPGDELQASHPLRDASVVVEDIEDNPGFFRVKLYAVPHFQVEGMDVNLSLVSQMPKAKA” here?
**A.** not soluble
